Assay results published in patent US20240270846A1 (published 2024).
Where a chain is given by its changes, count along the chain named. Numbers in names are those of the source. Where “and” joins values, the source holds several entries; their conditions need not be identical. Identical values can stand only once.

B1: L chain one-amino acid altered form of GLS3000, G to Y at Kabat position 89 (one-arm antibody: CE115HA000-pE22Hh / Kn010G3 / altered GLS3000-kappa) (antibody, human IgG1, kappa, L234A L235A, N297A, name in Kabat numbering)
heavy: QVQLVESGGGVVQPGRSLRLSCAASGFTFSNAWMHWVRQAPGKGLEWVAQIKAKSNNYATYYAESVKGRFTISRDDSKNSLYLQMNSLKTEDTAVYYCRYVHYGAYYGVDAWGQGTTVTVSSASTKGPSVFPLAPSSKSTSGGTAALGCLVKDYFPEPVTVSWNSGALTSGVHTFPAVLQSSGLYSLSSVVTVPSSSLGTQTYICNVNHKPSNTKVDKKVEPKSCDKTHTCPPCPAPEAAGGPSVFLFPPKPKDTLMISRTPEVTCVVVDVSHEDPEVKFNWYVDGVEVHNAKTKPREEQYASTYRVVSVLTVLHQDWLNGKEYKCKVSNKALPAPIEKTISKAKGQPREPQVYTLPPSRCELTKNQVSLSCAVKGFYPSDIAVEWESNGQPENNYKTTPPVLDSDGSFFLVSKLTVDKSRWQQGNVFSCSVMHEALHNHYTQKSLSLSPDYKDDDDK
chain: EPKSSDKTHTCPPCPAPELLGGPSVFLFPPKPKDTLMISRTPEVTCVVVDVSHEDPEVKFNWYVDGVEVHNAKTKPREEQYNSTYRVVSVLTVLHQDWLNGKEYKCKVSNKALPAPIEKTISKAKGQPREPQVCTLPPSRDELTKNQVSLWCLVKGFYPSDIAVEWESNGQPENNYKTTPPVLDSDGSFFLYSKLTVDKSRWQQGNVFSCSVMHEALHNRYTQKSLSLSP
light: DIVMTQSPLSLPVTPGEPASISCRSSQSLVHSNRNTYLHWYQQKPGQAPRLLIYKVSNRFSGVPDRFSGSGSGTDFTLKISRVEAEDVGVYYCYQGTQVPYTFGQGTKLEIKRTVAAPSVFIFPPSDEQLKSGTASVVCLLNNFYPREAKVQWKVDNALQSGNSQESVTEQDSKDSTYSLSSTLTLSKADYEKHKVYACEVTHQGLSSPVTKSFNRGEC
notes: One-arm antibody (IgG lacking one Fab); also called GLS3000 G89Y
B2: L chain one-amino acid altered form of GLS3000, T to Y at Kabat position 92 (one-arm antibody: CE115HA000-pE22Hh / Kn010G3 / altered GLS3000-kappa) (antibody, human IgG1, kappa, L234A L235A, N297A, name in Kabat numbering)
heavy: B1 heavy
chain: B1 chain
light: B1 light with Y94G, T97Y
notes: One-arm antibody (IgG lacking one Fab); also called GLS3000 T92Y
B3: L chain one-amino acid altered form of GLS3000, Q to Y at Kabat position 93 (one-arm antibody: CE115HA000-pE22Hh / Kn010G3 / altered GLS3000-kappa) (antibody, human IgG1, kappa, L234A L235A, N297A, name in Kabat numbering)
heavy: B1 heavy
chain: B1 chain
light: B1 light with Y94G, Q98Y
notes: One-arm antibody (IgG lacking one Fab); also called GLS3000 Q93Y
B4: L chain one-amino acid altered form of GLS3000, G to Y at Kabat position 91 (one-arm antibody: CE115HA000-pE22Hh / Kn010G3 / altered GLS3000-kappa) (antibody, human IgG1, kappa, L234A L235A, N297A, name in Kabat numbering)
heavy: B1 heavy
chain: B1 chain
light: B1 light with Y94G, G96Y
notes: One-arm antibody (IgG lacking one Fab); also called GLS3000 G91Y
B5: L chain one-amino acid altered form of GLS3000, V to Y at Kabat position 94 (one-arm antibody: CE115HA000-pE22Hh / Kn010G3 / altered GLS3000-kappa) (antibody, human IgG1, kappa, L234A L235A, N297A, name in Kabat numbering)
heavy: B1 heavy
chain: B1 chain
light: B1 light with Y94G, V99Y
notes: One-arm antibody (IgG lacking one Fab); also called GLS3000 V94Y
B6: L chain one-amino acid altered form of GLS3000, Q to Y at Kabat position 90 (one-arm antibody: CE115HA000-pE22Hh / Kn010G3 / altered GLS3000-kappa) (antibody, human IgG1, kappa, L234A L235A, N297A, name in Kabat numbering)
heavy: B1 heavy
chain: B1 chain
light: B1 light with Y94G, Q95Y
notes: One-arm antibody (IgG lacking one Fab); also called GLS3000 Q90Y
B7: dBBDu167/L094 (antibody, V domains shown)
VH: QVQLVESGGGLVQPGRSLRLSCAASGFTFSNAWMHWVRQAPGKGLEWVAQIKDKGNLYAAYYAPSVKGRFTISRDDSKNSIYLQMNSLKTEDTAVYYCHYVHYASAGGGLPGFGVDAWGQGTTVTVSS
VL: DIVMTQSPLSLPVTPGEPASISCYASEELLHINRHIYLHWYQQKPGQAPRLLIYKVYNRFNGVPDRFSGSGSGTDFTLKISRVEAEDVGVYYCAQGSSVPFTFGQGTKLEIK
notes: Purified IgG; Fab genes of the panning output converted into IgG format; also called dBBDu_167/dBBDu.L094
B8: dBBDu186/L098 (antibody, V domains shown)
VH: B7 VH with K54R, G55S, L57Q, A60T, S105Q, G107S, G108T, G109V, G112A
VL: B7 VL with Y24A, L30V, H35Y, Y37F, Y57S, N61I, S98Q
notes: Purified IgG; Fab genes of the panning output converted into IgG format
B9: dBBDu186/L106 (antibody, V domains shown)
VH: B7 VH with K54R, G55S, L57Q, A60T, S105Q, G107S, G108T, G109V, G112A
VL: B7 VL with Y24S, A25T, H35F, Y37F, Y57A, N61M, S98Q
notes: as for B8
B10: dBBDu186/L108 (antibody, V domains shown)
VH: B7 VH with K54R, G55S, L57Q, A60T, S105Q, G107S, G108T, G109V, G112A
VL: B7 VL with Y24R, A25T, H35F, I36T, Y37F, Y57S, N61M, S98A
notes: as for B8
B11: dBBDu189/L119 (antibody, V domains shown)
VH: B7 VH with V48I, K54R, G55S, L57Q, A60T, S105Q, G107S, G108S, G109L, G112S
VL: B7 VL with Y24T, E27Q, L30V, H35F, Y37F, Y57S, N61I, S98Q
notes: as for B8
B12: dBBDu186/L100 (antibody, V domains shown)
VH: B7 VH with K54R, G55S, L57Q, A60T, S105Q, G107S, G108T, G109V, G112A
VL: B7 VL with Y24S, L30V, H35Y, Y37F, N61M, A94G
notes: as for B8
B13: CE115HA000 V11L/D72A/L78I/D101Q with GGSGGS inserted between Kabat positions 99 and 100, one-arm antibody (antibody, V domains shown)
VH: QVQLVESGGGLVQPGRSLRLSCAASGFTFSNAWMHWVRQAPGKGLEWVAQIKAKSNNYATYYAESVKGRFTISRADSKNSIYLQMNSLKTEDTAVYYCRYVHYGAGGSGGSYYGVQAWGQGTTVTVSS
VL: DIVMTQSPLSLPVTPGEPASISCRSSQSLVHSNRNTYLHWYQQKPGQAPRLLIYKVSNRFSGVPDRFSGSGSGTDFTLKISRVEAEDVGVYYCGQGTQVPYTFGQGTKLEIKR
B14: CE115HA000 V11L/D72A/L78I/D101Q with GGSGGSGGS inserted between Kabat positions 99 and 100, one-arm antibody (antibody, V domains shown)
VH: QVQLVESGGGLVQPGRSLRLSCAASGFTFSNAWMHWVRQAPGKGLEWVAQIKAKSNNYATYYAESVKGRFTISRADSKNSIYLQMNSLKTEDTAVYYCRYVHYGAGGSGGSGGSYYGVQAWGQGTTVTVSS
VL: B13 VL
B15: CE115HA000 V11L/D72A/L78I/D101Q with GGSGGGS inserted between Kabat positions 99 and 100, one-arm antibody (antibody, V domains shown)
VH: QVQLVESGGGLVQPGRSLRLSCAASGFTFSNAWMHWVRQAPGKGLEWVAQIKAKSNNYATYYAESVKGRFTISRADSKNSIYLQMNSLKTEDTAVYYCRYVHYGAGGSGGGSYYGVQAWGQGTTVTVSS
VL: B13 VL
B16: dBBDu_H115/L039 (antibody, human IgG1, V domains shown)
VH: QVQLVESGGGLVQPGRSLRLSCAASGFTFSNAWMHWVRQAPGKGLEWVAQIKDKANSYNTYYAPSVKGRFTISRDDSKNSIYLQMNSLKTEDTAVYYCRYVHYGSSYGFLFAGYGVDAWGQGTTVTVSS
VL: DIVMTQSPLSLPVTPGEPASISCTSSQSLLHANRNTYLHWYQQKPGQAPRLLIYKVSNRFSGVPDRFSGSGSGTDFTLKISRVEAEDVGVYYCAQGTSAPFTFGQGTKLEIK
notes: Full length IgG (human IgG1 CH1-Fc heavy chain, kappa light chain)
B17: dBBDu_H115/L008 (antibody, V domains shown)
VH: B16 VH
VL: B16 VL with T24Q, Q27E, S28E, N35K, S57Q, S98A, A99T
notes: Full length IgG (human IgG1 CH1-Fc heavy chain, kappa light chain); also called Du115/DUL008
B18: dBBDu_H115/L014 (antibody, human IgG1, V domains shown)
VH: B16 VH
VL: B16 VL with A32Q, S61N, S98A, A99N
notes: as for B16
B19: dBBDu_H115/L016 (antibody, human IgG1, V domains shown)
VH: B16 VH
VL: B16 VL with L9M, T24Q, Q27E, S61N, S98A, A99N, F101Y
notes: as for B16
B20: dBBDu_H115/L035 (antibody, human IgG1, V domains shown)
VH: B16 VH
VL: B16 VL with T24A, S25A, Q27E, A32T, S98Q, A99S
notes: as for B16

Key:
[1] = biological target: T1, CD3 epsilon homodimer protein (UniProt P07766 23-126); test: SPR, Biacore T200, CD3 epsilon homodimer immobilized on CM4, one-arm antibody as analyte, 25 degrees C
T1 construct: also called CD3 (CD3 epsilon)

[2] = biological target: T2, biotin-labeled human CD137 fused to human IgG1 Fc fragment (human, biotin-labeled); test: bead ELISA, IgG on biotin-human CD137-Fc; competitor: free CD3 epsilon 62.5 pmol
T2 construct: also called human CD137-Fc; biotin-human CD137-Fc

[3] = biological target: T2, biotin-labeled human CD137 fused to …; test: bead ELISA, IgG on biotin-human CD137-Fc; decrease with free CD3 epsilon 62.5 pmol against free Fc 62.5 pmol
[4] = biological target: T2, biotin-labeled human CD137 fused to …; test: bead ELISA, IgG on biotin-human CD137-Fc; control competitor: free human IgG1 Fc 62.5 pmol
[5] = biological target: T3, biotinylated CD3 epsilon epitope peptide (UniProt P07766 22-48, biotinylated); test: SPR (Biacore); biotinylated CD3 epsilon epitope peptide on chip via streptavidin, antibody as analyte
T3 chain: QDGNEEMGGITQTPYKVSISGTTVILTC

[6] = biological target: T4, biotin-labeled human CD137 fused to human IgG1 Fc fragment (human, biotin-labeled); test: bead ELISA, IgG on biotin-human CD137-Fc; signal with free CD3e 62.5 pmol against free Fc 62.5 pmol
T4 construct: also called human CD137-Fc; biotin-human CD137-Fc

[7] = biological target: T4, biotin-labeled human CD137 fused to …; test: bead ELISA (chemiluminescence), IgG on biotin-human CD137-Fc on streptavidin beads; competitor free CD3 epsilon 62.5 pmol
[8] = biological target: T4, biotin-labeled human CD137 fused to …; test: bead ELISA (chemiluminescence), IgG on biotin-human CD137-Fc on streptavidin beads; control competitor free human Fc 62.5 pmol

| Binder | ratio of amounts bound (Z = Y/X) against the unaltered GLS3000 antibody [1] | ELISA signal, Free CD3e 62.5 pmol [2] | Signal decrease [3] | ELISA signal, Free Fc 62.5 pmol [4] | further results |
| --- | --- | --- | --- | --- | --- |
| B1 | 1.19 | – | – | – | – |
| B2 | 0.33 | – | – | – | – |
| B3 | 0.87 | – | – | – | – |
| B4 | 0.17 | – | – | – | – |
| B5 | 0.63 | – | – | – | – |
| B6 | 0.17 | – | – | – | – |
| B7 | – | 4370 | 96.9% | 141000 | – |
| B8 | – | 15900 | 86.2% | 115000 | – |
| B9 | – | 3090 | 68.7% | 9860 | – |
| B10 | – | 50800 | 39.2% | 83600 | – |
| B11 | – | 20400 | 76.9% | 88100 | – |
| B12 | – | 88900 | 13% | 102000 | – |
| B13 | – | – | – | – | Kd [5]: 34.6 nM and 31.1 nM |
| B14 | – | – | – | – | Kd [5]: 43.9 nM and 35.4 nM |
| B15 | – | – | – | – | Kd [5]: 43.5 nM and 34.3 nM |
| B16 | – | – | – | – | Signal decrease [6]: 97.2%; ELISA signal with Free CD3e 62.5 pmol [7]: 1550; ELISA signal with Free Fc 62.5 pmol [8]: 55800 |
| B17 | – | – | – | – | Signal decrease [6]: 98.1%; ELISA signal with Free CD3e 62.5 pmol [7]: 1450; ELISA signal with Free Fc 62.5 pmol [8]: 76900 |
| B18 | – | – | – | – | Signal decrease [6]: 97.9%; ELISA signal with Free CD3e 62.5 pmol [7]: 1510; ELISA signal with Free Fc 62.5 pmol [8]: 72100 |
| B19 | – | – | – | – | Signal decrease [6]: 96.7%; ELISA signal with Free CD3e 62.5 pmol [7]: 1540; ELISA signal with Free Fc 62.5 pmol [8]: 46800 |
| B20 | – | – | – | – | Signal decrease [6]: 97.9%; ELISA signal with Free CD3e 62.5 pmol [7]: 1470; ELISA signal with Free Fc 62.5 pmol [8]: 70600 |
